Data from US20120219551A1.
Several values for one entry are separate records, joined by “and”; a condition that tells them apart may be missing. Equal values may be shown once.

Tests used:
[1] = target: soluble monomeric FcγRIIIA (extracellular region of FcγRIIIA joined to the linker-AVITAG sequence) (human) (UniProt P08637); test: SPR (BIAcore), Ab captured on BSA-FITC, separate fit 200/800 nM
[2] = target: soluble dimeric FcγRIIB-Fc fusion protein (extracellular domain of FcγRIIB fused to hinge-CH2-CH3 of human IgG2) (human) (UniProt P31994); test: as above
[3] = target: FcγRIIIA on natural killer cells of human donor PBMC (human) (UniProt P08637); test: cell-based or functional assay
[4] = target: soluble monomeric FcγRIIIA (extracellular region of FcγRIIIA joined to the linker-AVITAG sequence) (human) (UniProt P08637); test: ELISA
[5] = target: soluble dimeric FcγRIIB-Fc fusion protein (extracellular domain of FcγRIIB fused to hinge-CH2-CH3 of human IgG2) (human) (UniProt P31994); test: ELISA
FcγRIIB (CD32B) (human) [6] = target: FcγRIIB (CD32B) (human) (UniProt P31994); test: BIAcore (as Table 27); cells shifted one column to the left
FcγRIIB (CD32B) (human) [7] = target: FcγRIIB (CD32B) (human) (UniProt P31994); test: BIAcore
[8] = target: FcγRIIIA (CD16A), V158 allotype (human) (UniProt P08637); test: BIAcore
[9] = target: FcγRIIIA (CD16A), F158 allotype (human) (UniProt P08637); test: BIAcore
[10] = target: FcγRIIA (CD32A), H131 allotype (human) (UniProt P12318); test: BIAcore
FcγRIIB (CD32B) (human) [11] = target: FcγRIIB (CD32B) (human) (UniProt P31994); test: BIAcore (as Table 27)
[12] = target: FcγRIIIA (CD16A), V158 allotype (human) (UniProt P08637); test: BIAcore (as Table 27)
FcγRIIB (CD32B) (human) [13] = target: FcγRIIB (CD32B) (human) (UniProt P31994); test: not stated; human FcRs
[14] = target: FcγRIIIA (CD16A), V158 allotype (human) (UniProt P08637); test: not stated; human FcRs
[15] = target: FcγRIIIA (CD16A), F158 allotype (human) (UniProt P08637); test: not stated; human FcRs
[16] = target: FcγRIIA (CD32A), H131 allotype (human) (UniProt P12318); test: not stated; human FcRs
[17] = target: FcγRIIIA (CD16A), F158 allotype (human) (UniProt P08637); test: BIAcore (as Table 27)
[18] = target: 2aRFcagl (FcγRIIA 131R-Fc fusion) (human) (UniProt P12318)
[19] = target: FcγRIIIA (CD16A), V158 allotype (human) (UniProt P08637)
[20] = target: FcγRIIIA (CD16A), F158 allotype (human) (UniProt P08637)
[21] = target: 2bFcagl (FcγRIIB-Fc fusion) (human) (UniProt P31994)
[22] = target: 2aHFcagl (FcγRIIA 131H-Fc fusion) (human) (UniProt P12318)
Chain of 2aHFcagl (FcγRIIA 131H-Fc fusion) (human) (P12318 34-217): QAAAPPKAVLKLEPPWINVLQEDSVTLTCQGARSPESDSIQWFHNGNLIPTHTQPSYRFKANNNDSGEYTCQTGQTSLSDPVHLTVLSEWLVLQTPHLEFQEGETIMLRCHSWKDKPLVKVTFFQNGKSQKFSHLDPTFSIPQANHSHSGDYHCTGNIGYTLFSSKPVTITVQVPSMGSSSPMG

Chain of soluble monomeric FcγRIIIA (extracellular region of FcγRIIIA joined to the linker-AVITAG sequence) (human) (P08637 17-208): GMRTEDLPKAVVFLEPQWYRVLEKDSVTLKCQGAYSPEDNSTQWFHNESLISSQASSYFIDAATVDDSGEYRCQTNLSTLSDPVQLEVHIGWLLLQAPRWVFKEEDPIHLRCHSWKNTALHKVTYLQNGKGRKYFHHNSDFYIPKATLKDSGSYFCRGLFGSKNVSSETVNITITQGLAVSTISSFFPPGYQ
Chain of FcγRIIIA (CD16A), F158 allotype (human) (P08637 17-208 limits assumed): as the sequence (P08637 17-208) above
Chain of soluble dimeric FcγRIIB-Fc fusion protein (extracellular domain of FcγRIIB fused to hinge-CH2-CH3 of human IgG2) (human) (P31994 43-217): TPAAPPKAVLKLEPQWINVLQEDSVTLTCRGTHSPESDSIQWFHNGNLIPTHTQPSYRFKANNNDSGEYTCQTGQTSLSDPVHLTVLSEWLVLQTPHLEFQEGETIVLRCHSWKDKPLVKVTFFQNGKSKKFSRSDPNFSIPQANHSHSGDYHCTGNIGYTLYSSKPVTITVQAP
Chain of FcγRIIB (CD32B) (human) (P31994 43-217 limits assumed): as the sequence (P31994 43-217) above
Chain of FcγRIIA (CD32A), H131 allotype (human) (P12318 34-217 limits assumed): as the sequence (P12318 34-217) above
Chain of FcγRIIIA on natural killer cells of human donor PBMC (human) (P08637 17-254): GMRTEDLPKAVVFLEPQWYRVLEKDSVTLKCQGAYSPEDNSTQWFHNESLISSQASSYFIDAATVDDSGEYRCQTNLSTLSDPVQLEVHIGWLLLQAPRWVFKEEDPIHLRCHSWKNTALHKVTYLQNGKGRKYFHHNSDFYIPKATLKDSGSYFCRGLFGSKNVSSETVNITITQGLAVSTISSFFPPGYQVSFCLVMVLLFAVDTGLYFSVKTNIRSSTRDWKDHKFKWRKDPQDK
Chain of FcγRIIIA (CD16A), V158 allotype (human) (P08637 17-208 F176V limits assumed): as the sequence (P08637 17-208) above, with F160V counted along it
Chain of 2bFcagl (FcγRIIB-Fc fusion) (human) (P31994 43-217): as the sequence (P31994 43-217) above
Chain of 2aRFcagl (FcγRIIA 131R-Fc fusion) (human) (P12318 34-217 H167R): as the sequence (P12318 34-217) above, with H134R counted along it

Row | Substance | ADCC, % [3] [%] | ELISA, OD [4] [OD] | Koff WT/Koff mutant (FcγRIIB (CD32B) (human) [7]) | Koff WT/Koff mutant [8] | Koff WT/Koff mutant [9] | Koff WT/Koff mutant [10] | Koff WT/Koff mutant (FcγRIIB (CD32B) (human) [11]) | Koff WT/Koff mutant [12] | fold change vs wild-type affinity (FcγRIIB (CD32B) (human) [13]) [fold] | fold change vs wild-type affinity [14] [fold] | fold change vs wild-type affinity [15] [fold] | fold change vs wild-type affinity [16] [fold] | other results
1 | ch4-4-20 Mut14 (K288M, K334E) (antibody) | 28 | 1.1 | – | – | – | – | – | – | – | – | – | – | Kd [1]: 75.4 nM; koff [1]: 0.1 s⁻¹; kon [1]: 1.37e+06 M⁻¹ s⁻¹; Kd [2]: 95.6 nM; koff [2]: 0.089 s⁻¹; ELISA, OD [5]: 0.13 OD
2 | ch4-4-20 Mut16 (F372Y) (antibody) | 15 | 1 | – | – | – | – | – | – | – | – | – | – | Kd [1]: 84.8 nM; ELISA, OD [5]: 1.55 OD
3 | ch4-4-20 Mut18 (K326E) (antibody) | 28 | 1 | – | – | – | – | – | – | – | – | – | – | Kd [1]: 92 nM; koff [1]: 0.112 s⁻¹; kon [1]: 1.23e+06 M⁻¹ s⁻¹; Kd [2]: 51.7 nM; koff [2]: 0.043 s⁻¹; ELISA, OD [5]: 1.25 OD
4 | ch4-4-20 Mut19 (K334N, K246I) (antibody) | 11 | 0.75 | – | – | – | – | – | – | – | – | – | – | Kd [2]: 45.3 nM
5 | ch4-4-20 Mut23 (K334E, R292L) (antibody) | 25 | 1.25 | – | – | – | – | – | – | – | – | – | – | Kd [1]: 70.2 nM; koff [1]: 0.105 s⁻¹; kon [1]: 1.43e+06 M⁻¹ s⁻¹; Kd [2]: 108 nM; koff [2]: 0.107 s⁻¹; ELISA, OD [5]: 0.1 OD
6 | immunoglobulin with Fc variant D270E, G316D, P396L, R416G (antibody) | – | – | 1.07 | 1.22 | 0.94 | 0.95 | 1.07 | 1.22 | – | – | – | – | Koff WT/Koff mutant (FcγRIIB (CD32B) (human) [6]): 1.07
7 | immunoglobulin with Fc variant D270E, G316D, R416G (antibody) | – | – | 0.78 | 2.18 | 2.49 | 1.95 | 0.78 | 2.18 | -1.7 | 0.4 | 0.1 | 0.4 | Koff WT/Koff mutant [17]: 2.49
8 | immunoglobulin with Fc variant F243L, R292P (antibody) | – | – | 0.12 and 0.16 | 4.73 and 4 | 0.6 and 1.67 | 0.34 and 0.52 | 0.12 and 0.16 | 4.73 and 4 | -5.3 | 3 | 0.7 | -0.9 | Koff WT/Koff mutant (FcγRIIB (CD32B) (human) [6]): 0.12; Koff WT/Koff mutant [17]: 1.67
9 | immunoglobulin with Fc variant F243L, R292P, V305I (antibody) | – | – | – | 2.56 | 1.43 | 0.23 | – | 2.56 | -13.3 | 1.6 | 0.4 | -3.3 | Koff WT/Koff mutant [17]: 1.43
10 | immunoglobulin with Fc variant L234F, F243L, R292P, Y300L (antibody) | – | – | – | – | – | – | – | – | – | – | – | – | binding relative to wt (wt = 1) [18]: 0.2; binding relative to wt (wt = 1) [19]: 1.7; binding relative to wt (wt = 1) [20]: 1.6; binding relative to wt (wt = 1) [21]: 0.2; binding relative to wt (wt = 1) [22]: 0.3
11 | immunoglobulin with Fc variant L235I, F243L, R292P, Y300L (antibody) | – | – | – | – | – | – | – | – | – | – | – | – | binding relative to wt (wt = 1) [18]: 0.1; binding relative to wt (wt = 1) [19]: 2.6; binding relative to wt (wt = 1) [20]: 3.3; binding relative to wt (wt = 1) [21]: 0.2; binding relative to wt (wt = 1) [22]: 0.5
12 | immunoglobulin with Fc variant L235Q, F243L, R292P, Y300L (antibody) | – | – | – | – | – | – | – | – | – | – | – | – | binding relative to wt (wt = 1) [19]: 1.8; binding relative to wt (wt = 1) [22]: 0.2
13 | immunoglobulin with Fc variant P396L (antibody) | – | – | 2.58 | 1.27 | 1.73 | 1.63 | 2.58 | 1.27 | 1.6 | 0.3 | 0.7 | 0.6 | Koff WT/Koff mutant [17]: 1.73
14 | immunoglobulin with Fc variant S239D, A330L, I332E (control XmAb) (antibody) | – | – | – | – | – | – | – | – | 0.74 | 13.9 | 8.1 | 0 | –
15 | immunoglobulin with Fc variant S298A, E333A, K334A (control AAA) (antibody) | – | – | – | – | – | – | – | – | -2.5 | 0.6 | 0.1 | -3.3 | –
16 | immunoglobulin with Fc variant Y300L (antibody) | – | – | 1.18 | 1.01 | 1.17 | 1.86 | 1.18 | 1.01 | 0.2 | 0 | 0.2 | 1.9 | –
